Results taken from the supplement of paper PMC9112550, “Optimization of the antimicrobial peptide Bac7 by deep mutational scanning” (BMC Biology, 2022).

System: Escherichia coli TOP10
Assay: shrunken log2 fold change of peptide-encoding DNA abundance (4.5 h post-induction vs induction); higher = less antimicrobial activity (less host growth inhibition)
Settings: time post-induction: 4.5 h; library: site-saturation at positions 5, 18, 19, 20
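Also: peptides expressed intracellularly from a pBAD plasmid library in pooled LB shake-flask culture, induced with 0.3% L-arabinose, DNA abundance read by NGS, three biological replicates, DESeq2 with apeglm shrinkage.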

Sequence | shrunken log2 fold change
RRIRHRPPRLPRPRPRPSTYPRP | -0.202
RRIRWRPPRLPRPRPRPVGSPRP | 0.445
RRIRLRPPRLPRPRPRPFEIPRP | 0.0206
RRIRRRPPRLPRPRPRPGITPRP | -0.0143
RRIRKRPPRLPRPRPRPCVIPRP | 0.0227
RRIRHRPPRLPRPRPRPCVMPRP | -0.239
RRIRNRPPRLPRPRPRPGIPPRP | -0.0284
RRIRTRPPRLPRPRPRPCQLPRP | -0.161
RRIRMRPPRLPRPRPRPNQWPRP | 2.38
RRIRERPPRLPRPRPRPCGCPRP | -0.0805
RRIRQRPPRLPRPRPRPYYRPRP | -0.124
RRIRVRPPRLPRPRPRPHHNPRP | 0.192
RRIRNRPPRLPRPRPRPILMPRP | -0.0495
RRIRPRPPRLPRPRPRPQCAPRP | 0.167
RRIRRRPPRLPRPRPRPHAKPRP | 0.0278
RRIRDRPPRLPRPRPRPAAFPRP | 0.549
RRIRGRPPRLPRPRPRPLKPPRP | 0.609
RRIRMRPPRLPRPRPRPSKGPRP | -0.071
RRIRQRPPRLPRPRPRPAHSPRP | 0.426
RRIRDRPPRLPRPRPRPWRTPRP | -0.0162
RRIRYRPPRLPRPRPRPGPMPRP | -0.148
RRIRSRPPRLPRPRPRPFPIPRP | 0.0325
RRIRYRPPRLPRPRPRPDRHPRP | -0.189

Sequence | shrunken log2 fold change
RRIRKRPPRLPRPRPRPEMRPRP | 0.105
RRIRKRPPRLPRPRPRPFWPPRP | 0.537
RRIRMRPPRLPRPRPRPVWQPRP | 0.752
RRIRERPPRLPRPRPRPRKRPRP | 0.255
RRIRSRPPRLPRPRPRPCHLPRP | -0.0433
RRIRGRPPRLPRPRPRPAYNPRP | -0.34
RRIRRRPPRLPRPRPRPKTTPRP | 0.0923
RRIRLRPPRLPRPRPRPCGHPRP | -0.0228
RRIRCRPPRLPRPRPRPSSLPRP | -0.555
RRIRGRPPRLPRPRPRPMIIPRP | 0.0975
RRIRFRPPRLPRPRPRPHQYPRP | -0.88
RRIRQRPPRLPRPRPRPYCNPRP | -1.38
RRIRGRPPRLPRPRPRPGAYPRP | 0.339
RRIRLRPPRLPRPRPRPSWKPRP | 0.132
RRIRHRPPRLPRPRPRPGAYPRP | -0.266
RRIRKRPPRLPRPRPRPRSFPRP | -0.0333
RRIRLRPPRLPRPRPRPVWNPRP | 0.2
RRIRNRPPRLPRPRPRPFWLPRP | -0.189
RRIRSRPPRLPRPRPRPCNGPRP | -0.0821
RRIRFRPPRLPRPRPRPYHDPRP | -0.722
RRIRTRPPRLPRPRPRPPPVPRP | 0.652
RRIRLRPPRLPRPRPRPNKTPRP | 0.0829
RRIRWRPPRLPRPRPRPYGFPRP | -0.00325

Sequence | shrunken log2 fold change
RRIRLRPPRLPRPRPRPLCGPRP | 0.161
RRIRERPPRLPRPRPRPWDHPRP | -0.204
RRIRDRPPRLPRPRPRPVERPRP | -0.00663
RRIRERPPRLPRPRPRPGEPPRP | -0.107
RRIRARPPRLPRPRPRPWIEPRP | -0.105
RRIRERPPRLPRPRPRPSQKPRP | 0.0497
RRIRMRPPRLPRPRPRPRHLPRP | -0.0764
RRIRKRPPRLPRPRPRPFDLPRP | 0.0686
RRIRMRPPRLPRPRPRPIMLPRP | -0.351
RRIRRRPPRLPRPRPRPFLQPRP | 0.117
RRIRLRPPRLPRPRPRPMALPRP | -0.0125
RRIRSRPPRLPRPRPRPTKDPRP | -0.105
RRIRVRPPRLPRPRPRPDTPPRP | -0.0915
RRIRGRPPRLPRPRPRPTFFPRP | 0.412
RRIRHRPPRLPRPRPRPPKHPRP | 0.2
RRIRFRPPRLPRPRPRPQSSPRP | 0.0748
RRIRSRPPRLPRPRPRPSNWPRP | -0.237
RRIRQRPPRLPRPRPRPNTSPRP | -0.292
RRIRHRPPRLPRPRPRPKDPPRP | 0.0476
RRIRDRPPRLPRPRPRPFMFPRP | 0.033
RRIRIRPPRLPRPRPRPFNCPRP | -0.0819
RRIRDRPPRLPRPRPRPMIRPRP | -0.0188
RRIRSRPPRLPRPRPRPREKPRP | 0.0145

Sequence | shrunken log2 fold change
RRIRTRPPRLPRPRPRPCRWPRP | -0.00822
RRIRYRPPRLPRPRPRPYMHPRP | 0.0498
RRIRARPPRLPRPRPRPINLPRP | -0.376
RRIRPRPPRLPRPRPRPQILPRP | -0.172
RRIRHRPPRLPRPRPRPMLIPRP | -0.824
RRIRKRPPRLPRPRPRPQYWPRP | 0.152
RRIRVRPPRLPRPRPRPWSMPRP | -0.014
RRIRQRPPRLPRPRPRPCFFPRP | -0.101
RRIRWRPPRLPRPRPRPCWFPRP | 0.0945
RRIRYRPPRLPRPRPRPCSDPRP | -0.187
RRIRTRPPRLPRPRPRPYISPRP | -0.382
RRIRHRPPRLPRPRPRPWCFPRP | -0.688
RRIRHRPPRLPRPRPRPKWCPRP | -0.142
RRIRMRPPRLPRPRPRPCKQPRP | 0.0203
RRIRVRPPRLPRPRPRPFLDPRP | -0.187
RRIRLRPPRLPRPRPRPGEDPRP | 0.121
RRIRGRPPRLPRPRPRPTEHPRP | 0.569
RRIRWRPPRLPRPRPRPMRGPRP | 0.754
RRIRWRPPRLPRPRPRPHYSPRP | -0.279
RRIRRRPPRLPRPRPRPEQCPRP | -0.00836
RRIRDRPPRLPRPRPRPKCAPRP | 0.169
RRIRERPPRLPRPRPRPAVFPRP | 0.154
